# From IntAct's records for PubMed 18067539
# B1: DNA-binding transcriptional repressor Mlc (Escherichia coli (strain K12)), P50456 (parent)
# chain: MVAENQPGHIDQIKQTNAGAVYRLIDQLGPVSRIDLSRLAQLAPASITKIVREMLEAHLVQELEIKEAGNRGRPAVGLVVETEAWHYLSLRISRGEIFLALRDLSSKLVVEESQELALKDDLPLLDRIISHIDQFFIRHQKKLERLTSIAITLPGIIDTENGIVHRMPFYEDVKEMPLGEALEQHTGVPVYIQHDISAWTMAEALFGASRGARDVIQVVIDHNVGAGVITDGHLLHAGSSSLVEIGHTQVDPYGKRCYCGNHGCLETIASVDSILELAQLRLNQSMSSMLHGQPLTVDSLCQAALRGDLLAKDIITGVGAHVGRILAIMVNLFNPQKILIGSPLSKAADILFPVISDSIRQQALPAYSQHISVESTQFSNQGTMAGAALVKDAMYNGSLLIRLLQG
# partner: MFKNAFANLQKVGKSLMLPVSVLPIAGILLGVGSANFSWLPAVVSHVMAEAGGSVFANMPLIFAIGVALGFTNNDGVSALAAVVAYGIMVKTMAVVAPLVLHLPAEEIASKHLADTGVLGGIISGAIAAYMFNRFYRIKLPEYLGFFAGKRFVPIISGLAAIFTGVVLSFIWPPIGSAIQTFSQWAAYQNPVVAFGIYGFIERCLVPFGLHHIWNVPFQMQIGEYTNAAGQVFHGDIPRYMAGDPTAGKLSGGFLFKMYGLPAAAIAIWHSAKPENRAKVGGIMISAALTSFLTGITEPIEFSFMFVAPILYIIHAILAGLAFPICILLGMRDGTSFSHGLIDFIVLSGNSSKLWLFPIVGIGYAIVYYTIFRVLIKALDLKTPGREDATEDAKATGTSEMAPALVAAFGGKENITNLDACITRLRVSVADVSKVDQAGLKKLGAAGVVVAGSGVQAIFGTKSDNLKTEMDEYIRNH
# Variants of: B1
# Settings: with ptgcb_ecoli ptsG
row,Variant,effect of a mutation on the interaction
1,MVAENQPGHIDQIKQTNAGAVYRLIDQLGPVSRIDLSRLAQLAPASITKIVREMLEAHLVQELEIKEAGNRGRPAVGLVVETEAWHYLSLRISRGEIFLALRDLSSKLVVEESQELALKDDLPLLDRIISHIDQFFIRHQKKLERLTSIAITLPGIIDTENGIVHRMPFYEDVKEMPLGEALEQHTGVPVYIQHDISAWTMAEALFGASRGARDVIQVVIDHNVGAGVITDGHLLHAGSSSLVEIGHTQVDPYGKRCYCGNHGCLETIASVDSILELAQLRLNQSMSSMLHGQPLTVDSLCQAALRGDLLAKDIITGVGAHVGRILAIMVNLFNPQKILIGSPLSKAADILFPVISDSIRQQALPAYSQHISVESTQFSNQGTMAGAALVKDAMYNGSLLIRLLQA [G406A],decreasing interaction strength
